In IntAct's records for PubMed 23770091:

B1: Discoidin, CUB and LCCL domain-containing protein 2 (Homo sapiens), Q96PD2 (parent)
chain: MASRAVVRARRCPQCPQVRAAAAAPAWAALPLSRSLPPCSNSSSFSMPLFLLLLLVLLLLLEDAGAQQGDGCGHTVLGPESGTLTSINYPQTYPNSTVCEWEIRVKMGERVRIKFGDFDIEDSDSCHFNYLRIYNGIGVSRTEIGKYCGLGLQMNHSIESKGNEITLLFMSGIHVSGRGFLASYSVIDKQDLITCLDTASNFLEPEFSKYCPAGCLLPFAEISGTIPHGYRDSSPLCMAGVHAGVVSNTLGGQISVVISKGIPYYESSLANNVTSVVGHLSTSLFTFKTSGCYGTLGMESGVIADPQITASSVLEWTDHTGQENSWKPKKARLKKPGPPWAAFATDEYQWLQIDLNKEKKITGIITTGSTMVEHNYYVSAYRILYSDDGQKWTVYREPGVEQDKIFQGNKDYHQDVRNNFLPPIIARFIRVNPTQWQQKIAMKMELLGCQFIPKGRPPKLTQPPPPRNSNDLKNTTAPPKIAKGRAPKFTQPLQPRSSNEFPAQTEQTTASPDIRNTTVTPNVTKDVALAAVLVPVLVMVLTTLILILVCAWHWRNRKKKTEGTYDLPYWDRAGWWKGMKQFLPAKAVDHEETPVRYSSSEVNHLSPREVTTVLQADSAEYAQPLVGGIVGTLHQRSTFKPEEGKEAGYADLDPYNSPGQEVYHAYAEPLPITGPEYATPIIMDMSGHPTTSVGQPSTSTFKATGNQPPPLVGTYNTLLSRTDSCSSAQAQYDTPKAGKPGLPAPDELVYQVPQSTQEVSGAGRDGECDVFKEIL

Tests used:
[1] = variants of: B1; settings: with crkl_human CRKL
[2] = variants of: B1; settings: with fyn_human FYN

Row | effect of a mutation on the interaction [1] | effect of a mutation on the interaction [2] | Variant
1 | disrupting interaction | disrupting interaction | Y655F
2 | disrupting interaction | disrupting interaction | Y565F
3 | disrupting interaction | disrupting interaction | Y621F
4 | disrupting interaction | disrupting interaction | Y666F
5 | disrupting interaction | disrupting interaction | Y732F
6 | disrupting interaction | disrupting interaction | Y677F
7 | disrupting interaction | disrupting interaction | Y750F
